Bounds are passed on as bounds.

One experiment has as its target HLA-B*51:01. Briefly: IEDB peptide-MHC binding, purified MHC/competitive/fluorescence; filed as Kd, often an IC50 or EC50 that approximates it; ≥ and ≤ were set here for values at or beyond the usual limits of such assays.
The target in another experiment is HLA-B*18:01. Described as above.
For experiment [1], the target named is HLA-A*26:01. Described as above.
The target in experiment [2] is HLA-B*57:01. The experiment is described as above.
Another experiment has as its target HLA-B*39:01. The experiment is described as above.
The target in the next experiment is HLA-B*46:01. Described as above.
A further experiment addresses HLA-B*27:03. The description is as above.
For the next experiment, the target named is HLA-B*15:01. The experiment is described as above. As to conditions: source organism: Orthohantavirus tulaense.
Experiment [3] deals with HLA-A*24:03. Briefly: IEDB peptide-MHC binding, purified MHC/direct/fluorescence; filed as Kd, often an IC50 or EC50 that approximates it; ≥ and ≤ were set here for values at or beyond the usual limits of such assays.
Another experiment addresses HLA-A*02:11. The experiment is described as above.
A further experiment addresses HLA-A*02:16. The description is as above.
A further experiment has as its target HLA-B*40:01. The experiment is described as above. As to conditions: source organism: Orthohantavirus puumalaense.
Experiment [4] deals with HLA-A*29:02. The experiment is described as above.
The target in the next experiment is HLA-A*03:01. The description is as above.
In experiment [5] the target is HLA-A*02:03. The experiment is described as above.
The next experiment addresses HLA-A*02:12. The experiment is described as above.
In the next experiment the target is HLA-A*02:19. The experiment is described as above.
Experiment [6] deals with HLA-A*29:02. Briefly: IEDB peptide-MHC binding, purified MHC/competitive/fluorescence; filed as Kd, often an IC50 or EC50 that approximates it; ≥ and ≤ were set here for values at or beyond the usual limits of such assays.
The target of experiment [7] is HLA-B*57:01. Briefly: IEDB peptide-MHC binding, purified MHC/competitive/radioactivity; filed as Kd, often an IC50 or EC50 that approximates it; ≥ and ≤ were set here for values at or beyond the usual limits of such assays.
Experiment [8] has as its target HLA-A*24:03. Briefly: IEDB peptide-MHC binding, purified MHC/competitive/fluorescence; filed as Kd, often an IC50 or EC50 that approximates it; ≥ and ≤ were set here for values at or beyond the usual limits of such assays.
The next experiment concerns the target HLA-A*69:01. The experiment is described as above. Conditions: source organism: Orthohantavirus andesense.
Experiment [9] has as its target HLA-A*02:01. The description is as above. As to conditions: source organism: Orthohantavirus andesense.
The next experiment deals with HLA-B*53:01. In words: IEDB peptide-MHC binding, purified MHC/competitive/radioactivity; filed as Kd, often an IC50 or EC50 that approximates it; ≥ and ≤ were set here for values at or beyond the usual limits of such assays. As to conditions: source organism: Dengue virus 1 Brazil/97-11/1997.
The target of experiment [10] is HLA-A*68:02. In words: IEDB peptide-MHC binding, purified MHC/direct/fluorescence; filed as Kd, often an IC50 or EC50 that approximates it; ≥ and ≤ were set here for values at or beyond the usual limits of such assays. Conditions: source organism: Orthohantavirus andesense.
The target in experiment [11] is HLA-A*26:01. The experiment is described as above. Conditions: source organism: Orthohantavirus andesense.
Experiment [12] concerns the target HLA-A*23:01. Described as above. As to conditions: source organism: Orthohantavirus andesense.
In experiment [13] the target is HLA-A*68:02. Briefly: IEDB peptide-MHC binding, purified MHC/competitive/fluorescence; filed as Kd, often an IC50 or EC50 that approximates it; ≥ and ≤ were set here for values at or beyond the usual limits of such assays. Conditions: source organism: Rickettsia sibirica 246.
Experiment [14] deals with HLA-A*68:02. In words: IEDB peptide-MHC binding, purified MHC/competitive/radioactivity; filed as Kd, often an IC50 or EC50 that approximates it; ≥ and ≤ were set here for values at or beyond the usual limits of such assays. As to conditions: source organism: Dengue virus 1 Brazil/97-11/1997.
The target of the next experiment is HLA-A*02:17. Described as above.
Another experiment concerns the target HLA-A*32:01. Described as above. As to conditions: source organism: Dengue virus 1 Brazil/97-11/1997.
For experiment [15], the target named is HLA-A*02:01. Described as above.
In another experiment the target is HLA-A*01:01. In words: IEDB peptide-MHC binding, purified MHC/competitive/fluorescence; filed as Kd, often an IC50 or EC50 that approximates it; ≥ and ≤ were set here for values at or beyond the usual limits of such assays.
For experiment [16], the target named is HLA-A*02:03. Briefly: IEDB peptide-MHC binding, purified MHC/competitive/radioactivity; filed as Kd, often an IC50 or EC50 that approximates it; ≥ and ≤ were set here for values at or beyond the usual limits of such assays.
Another experiment has as its target HLA-A*02:06. The experiment is described as above.
A further experiment addresses HLA-A*24:02. Described as above. Conditions: source organism: Vaccinia virus WR.
Experiment [17] deals with HLA-A*23:01. The description is as above. Conditions: source organism: Vaccinia virus WR.
Where [18] appears, read: source organism: Orthohantavirus tulaense.
Setting [19] is: source organism: Dengue virus 2 Jamaica/1409/1983.
Where [20] appears, read: source organism: Orthohantavirus andesense.
[21] abbreviates: source organism: Dengue virus 1 Brazil/97-11/1997.
[22] abbreviates: source organism: Dengue virus 1 Singapore/S275/1990.
The mark [23] stands for this setting: source organism: Dengue virus 2 Thailand/NGS-C/1944.
[24] abbreviates: source organism: Dengue virus 2 Peru/IQT2913/1996.
Where [25] appears, read: source organism: Dengue virus 3 China/80-2/1980.
The mark [26] stands for this setting: source organism: Dengue virus 3 Martinique/1243/1999.

On to AESICSYWL, for which the Kd with HLA-B*51:01 (setting [18]), with HLA-B*18:01 (setting [18]), with HLA-A*26:01 [1] (setting [18]), with HLA-B*57:01 [2] (setting [18]), in the experiment with HLA-B*39:01 (setting [18]) and with HLA-B*46:01 (setting [18]) was no less than 20 µM throughout. Further, the Kd (in general, a measure of binding affinity in units of concentration) was no less than 20 µM with HLA-B*27:03 (setting [18]); no less than 20 µM in the experiment with HLA-B*15:01; no less than 20 µM in the experiment with HLA-A*24:03 [3] (setting [18]); no less than 20 µM with HLA-A*02:11 (setting [18]); no less than 20 µM in the experiment with HLA-A*02:16 (setting [18]); 0.0003 µM in the experiment with HLA-B*40:01. In addition, the Kd with HLA-A*29:02 [4] (setting [18]), with HLA-A*03:01 (setting [18]), with HLA-A*02:03 [5] (setting [18]), with HLA-A*02:12 (setting [18]) and with HLA-A*02:19 (setting [18]) was no less than 20 µM each time.
APKDLLPWY gave a dissociation constant Kd with HLA-A*29:02 [6] (source organism: Bacillus anthracis str. A0488) of 2.54 µM.
Consider AVSMANIFRG, for which, in the experiment with HLA-B*57:01 [7] (setting [19]), the dissociation constant (Kd) was determined as 0.0372 µM.
In the case of AWISSMLLY, in the experiment with HLA-A*29:02 [6] (source organism: Brucella suis ATCC 23445), the Kd is 0.0002 µM.
For the sequence DWMDRIEEF, the equilibrium dissociation constant (Kd) with HLA-A*24:03 [8] (setting [20]) is 0.155 µM; with HLA-B*51:01 (setting [20]) it was no less than 20 µM; with HLA-B*18:01 (setting [20]), no less than 20 µM; in the experiment with HLA-A*26:01 [1] (setting [20]), no less than 20 µM; in the experiment with HLA-A*69:01, no less than 20 µM; with HLA-B*57:01 [2] (setting [20]) it was no less than 20 µM. The Kd with HLA-A*02:01 [9], with HLA-B*39:01 (setting [20]), in the experiment with HLA-B*46:01 (setting [20]), with HLA-B*27:03 (setting [20]), with HLA-A*02:11 (source organism: Maporal virus) and with HLA-A*02:16 (source organism: Maporal virus) was no less than 20 µM in each case. The dissociation constant (Kd) with HLA-A*29:02 [4] (source organism: Maporal virus), with HLA-A*03:01 (source organism: Maporal virus), with HLA-A*02:03 [5] (source organism: Maporal virus), with HLA-A*02:12 (source organism: Maporal virus) and with HLA-A*02:19 (source organism: Maporal virus) was no less than 20 µM in each case.
As to EAVEDERFW, the Kd is 0.0845 µM in the experiment with HLA-B*57:01 [7] (setting [21]) and 0.0808 µM with HLA-B*53:01.
For EVLKAMSLY, the Kd with HLA-B*51:01 (setting [20]), with HLA-B*57:01 [2] (setting [20]), with HLA-A*02:01 [9], with HLA-B*39:01 (setting [20]), with HLA-B*46:01 (setting [20]) and with HLA-B*27:03 (setting [20]) was no less than 20 µM each time. Further, the dissociation constant Kd with HLA-A*24:03 [3] (setting [20]) is no less than 20 µM; in the experiment with HLA-A*02:11 (setting [20]), no less than 20 µM; in the experiment with HLA-A*68:02 [10] it was no less than 20 µM; in the experiment with HLA-A*26:01 [11] it was 0.0039 µM; with HLA-A*03:01 (setting [20]) it was no less than 20 µM; in the experiment with HLA-A*02:03 [5] (setting [20]), no less than 20 µM. Further, the Kd with HLA-A*02:12 (setting [20]), with HLA-A*02:19 (setting [20]) and in the experiment with HLA-A*23:01 [12] was no less than 20 µM throughout.
For FIHFDHVPI, the Kd with HLA-A*68:02 [13] is 0.0247 µM.
Turning to GTSHNILVEV, the Kd is 0.015 µM in the experiment with HLA-A*68:02 [14] and 0.758 µM with HLA-B*57:01 [7] (setting [21]).
Turning to KFGPYVSDY, the Kd in the experiment with HLA-A*29:02 [6] (source organism: Yersinia pseudotuberculosis IP 31758) was 0.11 µM.
LMLVAHYAI: the Kd worked out at 0.0158 µM in the experiment with HLA-A*02:17 (setting [22]), 0.00557 µM with HLA-A*32:01 and 0.00646 µM with HLA-A*02:01 [15] (setting [22]).
With LNRPDIGLY, the Kd in the experiment with HLA-A*29:02 [6] (source organism: Campylobacter jejuni) turned out to be 0.306 µM.
In the experiment with HLA-A*01:01 (source organism: Bacillus cereus G9241), LTMDREMLY had a dissociation constant (Kd) of 0.0051 µM.
MIIMLIPTV: the Kd with HLA-A*02:17 (setting [23]) turned out to be 0.000634 µM; in the experiment with HLA-A*02:01 [15] (setting [23]) it was 0.00389 µM; with HLA-A*02:03 [16] (setting [24]), 0.0044 µM; with HLA-A*02:06 (setting [24]) it was 0.0075 µM.
Consider NTSMAMTCIA, for which the Kd in the experiment with HLA-B*57:01 [7] (source organism: Dengue virus 4 Philippines/H241/1956) was determined as 11.7 µM.
In the experiment with HLA-A*24:03 [8] (source organism: Escherichia coli 536), PYKIPATVI had a Kd of 1.06 µM.
Consider QFLAPDDRY, for which, in the experiment with HLA-A*29:02 [6] (source organism: Vibrio cholerae 2740-80), the Kd amounted to 0.0032 µM.
In the experiment with HLA-A*01:01 (source organism: Influenza A virus (A/X-31(H3N2))), QVSRPMFLY had a Kd of no less than 20 µM.
Consider SWNNHSYLY, for which the Kd in the experiment with HLA-A*29:02 [6] (source organism: Mus musculus) is no more than 0.0001 µM; in the experiment with HLA-A*01:01 (source organism: Mus musculus), 4.28 µM.
As to VLNPYMPSV, the Kd with HLA-A*02:17 (setting [19]) was found to be 0.00812 µM; with HLA-A*02:01 [15] (setting [19]), 0.00138 µM; in the experiment with HLA-A*02:03 [16] (setting [19]) it was 0.0066 µM; with HLA-A*02:06 (setting [19]), 0.00619 µM.
VMLLVLCAV: the Kd in the experiment with HLA-A*02:17 (setting [25]) was no less than 28.7 µM; in the experiment with HLA-A*02:01 [15] (setting [25]), 0.0147 µM; in the experiment with HLA-A*02:03 [16] (setting [26]), 0.775 µM; with HLA-A*02:06 (setting [26]), 0.0124 µM.
As to VTDTNKFDNY, the figures for the Kd in the experiment with HLA-A*01:01 (source organism: Vaccinia virus WR), in the experiment with HLA-A*24:02 and in the experiment with HLA-A*23:01 [17] were 0.0049 µM, no less than 70.3 µM and no less than 70 µM, respectively.

Source of the values: the Immune Epitope Database (IEDB).
